Results published in a protein production outcome set (Wang et al. 2014).

Test: label from the status in PepcDB records

MEIFGKTFREGRFVLKEKNFTVEFAVEKIHLGWKISGRVKGSPGRLEVLRTKAPEKVLVNNWQSWGPCRVVDAFSFKPPEIDPNWRYTASVVPDVLERNLQSDYFVAEEGKVYGFLSSKIAHPFFAVEDGELVAYLEYFDVEFDDFVPLEPLVVLEDPNTPLLLEKYAELVGMENNARVPKHTPTGWCSWYHYFLDLTWEETLKNLKLAKNFPFEVFQIDDAYEKDIGDWLVTRGDFPSVEEMAKVIAENGFIPGIWTAPFSVSETSDVFNEHPDWVVKENGEPKMAYRNWNKKIYALDLSKDEVLNWLFDLFSSLRKMGYRYFKIDFLFAGAVPGERKKNITPIQAFRKGIETIRKAVGEDSFILGCGSPLLPAVGCVDGMRIGPDTAPFWGEHIEDNGAPAARWALRNAITRYFMHDRFWLNDPDCLILREEKTDLTQKEKELYSYTCGVLDNMIIESDDLSLVRDHGKKVLKETLELLGGRPRVQNIMSEDLRYEIVSSGTLSGNVKIVVDLNSREYHLEKEGKSSLKKRVVKREDGRNFYFYEEGERE
protein production: not failed

MHNFSFDVDESYAKKNNEILRDAKRLQISALCLGLILGGGAVAVYLFSNGAVWMWMIAIVMVFLALLSFIMIPVIPRQMGNAQTLYDDYELAPAIIAEVNPRDVVLLALVNRNVNPEAKPEWALATRTIVRVGAHERRLGERIPSVAITGRRTVKDQDHWDEISPMPITWGTTDKDIIREAEKTIPHELWAKLEKNRGKLEDVKKTPNNLFKL
protein production: failed

MSGQHRTRVGGVILAAGRSSRYESGNKLLATIDGKAVVRQVTETACKSSLSDAVAVLGHEKVAVAAALDGLSLSVQHNDEYATGQSASVRHGVEFARSAGWDAALFLLGDMPFVRVETIEELLEAYRTGTATVVVPEHEGRRGNPVLFDNCHFDSLASVSGDRGGRDIIETTEKTAFIEVSDPGVHWDIDTDADLAEFTDRRDSLLEHHHHHH
protein production: not failed

MSNIITYLKNNSNLTFDELALNDVDILCLNEFGYISFEKLINTTEMKSVLVCELYHEYLQTMAKSYSFMFTSQRHDLCQLMMTSKRFKNLTLSYYRAEISLEFEKQFAAMVFTIPNINYHQVVFRGTDANLIGWKEDFKLTYMREISAHRSAIKYLNTILPYFDKVVLSGHSKGGNLALYAAMFTKPDLKAKIDLIWLIDSPGLQKTLLPTTEYKTTKQKCIRLLPEESIVGMMLYSDIEPLIISSNARGILQHDVTTWEIQEPAILKTGTGLSLKSICFEKTFQQWMAELKSQERKLFFDLLFDSFLSSGVSSLDDFNLASRAKMMKAFHSFRELDDDKKRLFNKSLKLLVTIFWGAYHDNSRETK
protein production: failed

MKETRGYGGDAPFCTRLNHSYTGMWAPERSAEARGNLTRPPGSGEDCGSVSVAFPITMLLTGFVGNALAMLLVSRSYRRRESKRKKSFLLCIGWLALTDLVGQLLTTPVVIVVYLSKQRWEHIDPSGRLCTFFGLTMTVFGLSSLFIASAMAVERALAIRAPHWYASHMKTRATRAVLLGVWLAVLAFALLPVLGVGQYTVQWPGTWCFISTGRGGNGTSSSHNWGNLFFASAFAFLGLLALTVTFSCNLATIKALVSRCRAKATASQSSAQWGRITTETAIQLMGIMCVLSVCWSPLLIMMLKMIFNQTSVEHCKTHTEKQKECNFFLIAVRLASLNQILDPWVYLLLRKILLRKFCQENPAVSS
protein production: failed

MTDTASKYAVKLKTNFEDPKWVNRHKFMFNFLDINGNGKITLDEIVSKASDDICAKLGATPAQTQRHQEAVEAFFKKIGLDYGKEVEFPAFVNGWKELAKHDLKLWSQNKKSLIRNWGEAVFDIFDKDGSGSISLDEWKTYGGISGICPSDEDAEKTFKHCDLDNSGKLDVDEMTRQHLGFWYTLDPNADGLYGNFVP
protein production: not failed

MTPHPRLSIGLPVYNGEEYLAESLDALLGQTYENFELVISDNASTDGTRDICRRYAAQDSRIRYIRLPRNIGAAPNHNYVFTECRGELFKWASHDDLYARDLLRSCVAALDERPEVVLAHAGQAVIDGDGKVKVPYEYGLATDSPRAPERFRSLLFEPGGDDFYGVMRSAMLRRVKPHDSYHHADRTFVAEITLHGPFHQVPELLYFRRDHPTRAERANPSKRSRCVNLDPRRAGPLHPTPRLLAEYVWGFASAIGRAPLSSADRRACHRHLAAWLTSRVRPGVGERVEDRAPVDPDRLTVSVDDLVAGREGRQALEHHHHHH
protein production: failed

MSSMYTTFAEQYDNVVQDNIYNAYLERPSLQAMLGDVNGCDVIDLGCGSGVYADYFIHRGVAKLTCIDYSPNMIEIVKRKFGDRVTAYAQDASIGLIKEASESADLIISPLMIHYLEDLSVLFNDVARVLKNGGNFAFSTHHPFADFECTLSGNYFEREFITEMWNTVGEPVEVTFYRRSLTEIMNAITDSGLVVTQLSEGKVAEEVKQISLEKYEYLSKNPNFIFIKCQKLV
protein production: failed

MMKRARIIYNPTSGRELFKKSLPEVLQKLEQAGYEASCHATTGPGDATVAARQAVERKFDVVIAAGGDGTLNEVVNGLVGHEFRPKFGIIPVGTTNDFARAIGVPRSIEEAADIICEGKTVPLDLGRANDTYFINIAGGGRITELTYEVPSKLKTVLGQLAYYLKGIEMLPSLHPTYVEIEYDGKLLQEEITMFLITNTRSVGGFEKVAPYASINDGLFDLLVLKKGSIADLIKAATQAQRGEHINNPKVLYTQANRIKVHSPDKLMINLDGEYGGDAPMEFENMYHCLELFVPEHQEDAL
protein production: failed

MKLESNAFEKAFSSDPAPLGLAGFAFTTFLLSFINAGLIPASGVNVVVPLAIAYGGLAQLITGSWEMRRGNNFGFTAFTSYGSFWIFYALMVILADLHIINALPAVAVGWALILWGIFTLYMWGGAMMASMSLNLTFLFLWLTFVVLGLGAIYSSVALTHAGGYLGILSAFFAAYTSFAIIINSMKPGTIPVGPGMFHKKAGK
protein production: failed

MSLKICVIGSSGHFRYALEGLDEECSITGIAPGVPEEDLSKLEKAISEMNIKPKKYNNWWEMLEKEKPDILVINTVFSLNGKILLEALERKIHAFVEKPIATTFEDLEKIRSVYQKVRNEVFFTAMFGIRYRPHFLTAKKLVSEGAVGEIRLVNTQKSYKLGQRPDFYKKRETYGGTIPWVGIHAIDWIHWITGKKFLSVYATHSRLHNSGHGELETTALCHFTLENEVFASLSIDYLRPQGAPTHDDDRMRIVGTRGIVEVINERVFLTDEKGHREVPLVEKGQIFEDFLREIRGQGKCMVTPEDSILTTEIALKARLSADTGQIVLIEGHHHHHH
protein production: not failed

MEIFKPDYLMIDSMIFFPTLILSFLIKRNYVKLLKSIGIVSPIYLFWDFLATWRNSWTFNPKYVAGIYVIDLPIEEVMFFLVTPFATLLIFDFVMGKVRDKEVKWVPKVVCVAIPLLLLTLPFVYNYSYTFIDLVYLIMSLIVSLLIGRNLLASRNFWIFMGLSYIPFLVFDYFLTSDPVVIYGSHSIVGIRFITIPIEDFIYSFSMITFYTVFYIRGNSLWMKQK
protein production: failed

DILVFTPRKSDAGISVILYPGAFVDALSYAPLANKLASSGYKTYIAEMPLNLAVFGKNRAADIIDEAPDEKFVIGGHSLGGVMSSRFAHENESEIEGVFFLASYPDKKGSLKNASFPALSITGTKDDVLNKDAYDKNKKYLPKDTTFVSIEGGNHAQFGSYGAQHGDGKATISEAEQTDQVSNALIAWLNTSVKNQE
protein production: not failed

MRTMPDKPDTWARIVAAISNPLWQGMIMAIVVSLLRILYDAKETSKRRILFEALICGSLSLVASSLIEWMTWPPSLSVAAGGTIGFLGVTAIRELVARFIGRKVDSL
protein production: failed

MGKEAVTGKVRKLTVQLDHQTGDLKGCSRRGPTPRSRAPGAKLSAPEAGPPRRGPLPRGGAGRDTLLGAKATPSSPAARRYVTALGPPQPRGSTDSACAALPQPVPHEPREAAFRLAPASERGASVSPARIPRRRRRVPAMWDPRAARTPPRELAMLLCNKSNAFYNLGKWNEAFLAAKECLQWDPTYVKGYYRAGYSLLHLLQPYEAARMFFEGLRLLQRSPDQLQVPDFLVGIFTTMSSDSIVLQSFLPCFDHIFTTGFSTEVWQYVIQKLAKKGLWHQSFLLLSAKKDRLPSNIHVSELSLQSLFEKYVFIGFYEKLEQVPKLVQWLVSIGANIETIGPNPLHALMRLCIQARESQLFRWVMDQKPEWKEHINHRDDAGCTVLHVAAAHFPGYTSRRQTEDVQMLLSFGADPTLLDGHARTVVDVLKRNKNFRAIDKINSHLEKLASSSKGLSALQEAFISKQ
protein production: failed
